Where “and” joins values, the source holds several entries; their conditions need not be identical. Equal values may be shown once. Read-outs that look alike come from different tables or passages of the source.
How the values were obtained:
Human OSM [1] = molecular target: T1, Human OSM (human, UniProt P13725 26-221); assay: cell-based or functional assay
T1 sequence: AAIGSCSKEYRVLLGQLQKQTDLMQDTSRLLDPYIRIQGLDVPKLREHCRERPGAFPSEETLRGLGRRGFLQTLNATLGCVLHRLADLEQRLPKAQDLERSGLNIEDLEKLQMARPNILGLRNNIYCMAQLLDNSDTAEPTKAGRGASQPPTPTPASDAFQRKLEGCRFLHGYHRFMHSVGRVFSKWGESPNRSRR

Human OSM [2] = molecular target: T1, Human OSM; assay: cell-based or functional assay; remark: listed apart in the source
Human OSM [3] = molecular target: T1, Human OSM; assay: cell-based or functional assay; remark: listed apart in the source
Human OSM [4] = molecular target: T1, Human OSM; assay: cell-based or functional assay; remark: listed apart in the source
Human OSM [5] = molecular target: T1, Human OSM; assay: cell-based or functional assay; remark: listed apart in the source
Human OSM [6] = molecular target: T1, Human OSM; assay: cell-based or functional assay; remark: listed apart in the source
Cynomolgus OSM [7] = molecular target: T2, Cynomolgus OSM (cynomolgus, UniProt A0A2K5VPC6 26-221); assay: BIAcore kinetics, transfection supernatant
T2 construct: also called Cyno OSM; cynomolgus macaque OSM
T2 sequence: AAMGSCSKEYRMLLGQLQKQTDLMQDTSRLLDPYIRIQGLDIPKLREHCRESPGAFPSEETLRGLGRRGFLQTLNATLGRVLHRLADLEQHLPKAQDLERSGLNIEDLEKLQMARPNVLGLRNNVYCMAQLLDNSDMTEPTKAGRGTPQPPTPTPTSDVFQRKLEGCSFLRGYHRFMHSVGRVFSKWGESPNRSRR

Human OSM [8] = molecular target: T1, Human OSM; assay: BIAcore kinetics, transfection supernatant
Human OSM [9] = molecular target: T1, Human OSM; assay: BIAcore, purified antibody
Human OSM [10] = molecular target: T1, Human OSM; assay: cell-based or functional assay; remark: listed apart in the source
Human OSM [11] = molecular target: T1, Human OSM; assay: cell-based or functional assay; remark: listed apart in the source
[12] = molecular target: T3, Endogenous human OSM (neutrophil-derived) (human, UniProt P13725 26-221, limits assumed); assay: gp130 ELISA with endogenous neutrophil-derived human OSM
T3 construct: Native OSM generated from GM-CSF stimulation of healthy human neutrophils; also called native OSM; endogenous OSM
T3 sequence: T1 sequence

Cynomolgus OSM [13] = molecular target: T2, Cynomolgus OSM; assay: cell-based or functional assay
Human OSM [14] = molecular target: T1, Human OSM; assay: cell-based or functional assay; remark: listed apart in the source
[15] = molecular target: T3, Endogenous human OSM …; assay: gp130 ELISA with endogenous neutrophil-derived human OSM; remark: listed apart in the source
Cynomolgus OSM [16] = molecular target: T2, Cynomolgus OSM; assay: Kinexa solution phase affinity
Protocol: (§1) Kinexa (Sapidyne Instruments 3200) solution phase affinity was used to determine the overall affinity of anti-OSM antibody H0(huCDRH1)L1 and Humanised 15E10 (an unrelated OSM antibody) to human, cynomolgus macaque, rhesus macaque and marmoset OSM (Table 15). Humanised 15E10 was added for comparison purposes.
(§2) OSM beads were prepared either by adsorption (polymethylmethacrylate beads-PMMA) or amine coupling (NHS-activated sepharose beads). The range of OSM molecules studied necessitated the generation of beads coated with different concentrations of OSM. For the solution phase portion of the assay, a fixed concentration of antibody was incubated with a broad range of OSM concentrations and allowed to reach equilibrium by incubation at r.t. for at least 2 h before analysis proceeded. The OSM beads were then used to determine the amount of free antibody present in the solution phase samples, by means of the free antibody binding to the OSM bead matrix then detected using an appropriate secondary antibody (either anti-human or anti-mouse depending on the construct being tested) labelled with a fluorescent dye. The binding curves where fitted using the Kinexa Pro analysis software inherent to the machine. Multiple runs using varying starting concentrations of antibody were then compiled and analysed using the n-curve analysis software to give a more accurate determination of affinity.

Marmoset OSM [17] = molecular target: T4, Marmoset OSM (marmoset); assay: Kinexa solution phase affinity
T4 construct: also called Marm OSM
Protocol: as §1, §2

Rhesus OSM = molecular target: T5, Rhesus OSM (rhesus macaque, UniProt F7GF43 26-221); assay: Kinexa solution phase affinity
T5 construct: also called rhesus macaque OSM
T5 sequence: T2 sequence
Protocol: as §1, §2

Human OSM [18] = molecular target: T1, Human OSM; assay: Kinexa solution phase affinity
Protocol: as §1, §2

Cynomolgus OSM [19] = molecular target: T2, Cynomolgus OSM; assay: cell-based or functional assay; remark: listed apart in the source
Marmoset OSM [20] = molecular target: T4, Marmoset OSM; assay: cell-based or functional assay
Human OSM [21] = molecular target: T1, Human OSM; assay: cell-based or functional assay; remark: listed apart in the source
Cynomolgus OSM [22] = molecular target: T2, Cynomolgus OSM; assay: BIAcore kinetics, purified antibody
Human OSM [23] = molecular target: T1, Human OSM; assay: BIAcore kinetics, purified antibody

IC50 (read off the curve); MCP-1 release from HFLS-RA cells stimulated with 0.3 ng/ml human OSM (Human OSM [1]): ~0.005 nM | IC50 (read off the curve); IL-6 release from IPF human lung fibroblasts stimulated with 3 ng/ml OSM (Human OSM [2]): ~0.01 µg/mL | IC50 (read off the curve); MCP-1 release from normal human lung fibroblasts stimulated with 3 ng/ml OSM (Human OSM [3]): ~0.01 µg/mL | IC50 (read off the curve); IL-6 release from HFLS-RA cells stimulated with 0.3 ng/ml human OSM (Human OSM [4]): ~0.006 nM | IC50 (read off the curve); IL-6 release from HFLS-RA cells stimulated with 3 ng/ml human OSM (Human OSM [5]): ~0.1 nM | IC50 (read off the curve); IL-6 release from normal human lung fibroblasts stimulated with 3 ng/ml OSM (Human OSM [6]): ~0.006 µg/mL | Kd (Cynomolgus OSM [7]): 0.31 nM | koff (Cynomolgus OSM [7]): 0.000109 s⁻¹ | kon (Cynomolgus OSM [7]): 352000 M⁻¹ s⁻¹ | Kd (Human OSM [8]): 0.437 nM | koff (Human OSM [8]): 0.000158 s⁻¹ | kon (Human OSM [8]): 361000 M⁻¹ s⁻¹ | fold increased affinity compared with 15E10h (Human OSM [9]): 6.5 fold | IC50 (read off the curve); MCP-1 release from HFLS-RA cells stimulated with 3 ng/ml human OSM (Human OSM [10]): ~0.1 nM | IC50 (read off the curve); MCP-1 release from IPF human lung fibroblasts stimulated with 3 ng/ml OSM (Human OSM [11]): ~0.03 µg/mL | fold increase in potency compared with 15E10h [12]: ~12 fold | KB cell neutralisation assay, mean IC50 (Cynomolgus OSM [13]): 0.007 µg/ml and 47 pM | KB cell neutralisation assay, mean IC50 (Human OSM [14]): 0.008 µg/ml and 53 pM | IC50 [15]: 0.0062 µg/mL and 0.041 nM | Kd (Cynomolgus OSM [16]): 0.053 nM | Kd (Marmoset OSM [17]): 0.021 nM | Kd (Rhesus OSM): 0.122 nM | Kd (Human OSM [18]): 0.038 nM | KB cell neutralisation assay, mean IC50 (Cynomolgus OSM [19]): 0.0041 µg/ml and 27 pM | KB cell neutralisation assay, mean IC50 (Marmoset OSM [20]): 0.0036 µg/ml and 24 pM | KB cell neutralisation assay, mean IC50 (Human OSM [21]): 0.003 µg/ml and 20 pM | Kd (Cynomolgus OSM [22]): 0.199 nM | koff (Cynomolgus OSM [22]): 8.39e-05 s⁻¹ | kon (Cynomolgus OSM [22]): 423000 M⁻¹ s⁻¹ | Kd (Human OSM [23]): 0.136 nM | koff (Human OSM [23]): 9.65e-05 s⁻¹ | kon (Human OSM [23]): 709000 M⁻¹ s⁻¹
B1: Humanised 10G8 H0(IGHV3-23)L1 (antibody, human IgG1, kappa, V domains shown)
VH: EVQLVESGGGLVQPGGSLRLSCAASGFTFSSYAMSWVRQAPGKGLEWVATISDGGSFTYYLDNVRGRFTISRDNAKNSLYLQMNSLRAEDTAVYYCARDVGHTTFWYFDVWGRGTLVTVSS
VL: DIVMTQSPDSLAVSLGERATINCRASKSVSAAGYNFMHWYQQKPGQPPKVLIYYASNLESGVPDRFSGSGSGTDFTLTISSLQAEDVAVYYCLHSREFPFTFGGGTKVEIKR
notes: IgG1 kappa; also called H0(huCDRH1)L1; H0 (CDRH1 IGHV3_23) L1
